Measurements published in IntAct's records for PubMed 12620189.

B1: SCOCO-like protein 1 (Saccharomyces cerevisiae), Q3E784 (parent)
chain: MSAENISTGSPTGKQPSSEVNLGEREAGTKNERMMRQTKLLKDTLDLLWNKTLEQQEVCEQLKQENDYLEDYIGNLMRSSNVLEK
partner: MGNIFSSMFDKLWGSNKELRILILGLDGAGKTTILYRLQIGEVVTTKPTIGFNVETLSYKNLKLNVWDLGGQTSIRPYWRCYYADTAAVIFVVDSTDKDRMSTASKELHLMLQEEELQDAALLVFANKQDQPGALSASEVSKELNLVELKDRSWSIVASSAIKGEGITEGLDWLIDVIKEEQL

Variants of: B1
Conditions: with arl1_yeast ARL1, P38116

Row | effect of a mutation on the interaction | Variant
1 | disrupting interaction | MSAENISTGSPTGKQPSSEVNLGEREAGTKNERMMRQTKLLKDTLDLLWNKTLEQQEVCEQLKQENDYLEDAIGNLMRSSNVLEK [Y72A]
